# Paper PMC9482650, “Quantitative fragmentomics allow affinity mapping of interactomes” (Nature Communications, 2022)
# Experiments:
# Test in all cases: holdup assay
# Design in all cases: key: below the threshold = too weak to quantify, mostly under pKd 3.1 to 4
# ARHGEF11, O15085 = target: T1, ARHGEF11, O15085
# T1 sequence (O15085 42-136, limits assumed, looked up): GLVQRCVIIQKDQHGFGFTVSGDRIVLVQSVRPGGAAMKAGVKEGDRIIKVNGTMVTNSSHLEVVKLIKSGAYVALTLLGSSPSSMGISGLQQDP
# CARD11, Q9BXL7 = target: T2, CARD11, Q9BXL7
# T2 sequence (Q9BXL7 662-765, limits assumed, looked up): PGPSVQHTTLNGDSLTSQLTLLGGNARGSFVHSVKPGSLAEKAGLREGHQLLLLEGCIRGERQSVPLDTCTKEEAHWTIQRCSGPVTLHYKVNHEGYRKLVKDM
# DLG5_1, Q8TDM6 = target: DLG5_1, Q8TDM6
# Chain of DLG5_1, Q8TDM6 (Q8TDM6 617-713): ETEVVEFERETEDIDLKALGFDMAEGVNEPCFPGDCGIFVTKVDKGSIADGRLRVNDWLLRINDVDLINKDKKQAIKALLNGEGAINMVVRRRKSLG
# DVL3, Q92997 = target: T3, DVL3, Q92997
# T3 sequence (Q92997 244-331, limits assumed, looked up): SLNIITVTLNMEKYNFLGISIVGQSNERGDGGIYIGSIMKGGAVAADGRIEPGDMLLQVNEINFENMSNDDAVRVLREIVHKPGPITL
# FRMPD1, Q5SYB0 = target: T4, FRMPD1, Q5SYB0
# T4 sequence (Q5SYB0 52-145, limits assumed, looked up): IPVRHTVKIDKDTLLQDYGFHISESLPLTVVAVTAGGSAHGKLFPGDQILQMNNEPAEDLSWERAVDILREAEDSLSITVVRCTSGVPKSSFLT
# GORASP1, Q9BQQ3 = target: GORASP1, Q9BQQ3
# Chain of GORASP1, Q9BQQ3 (Q9BQQ3 1-208): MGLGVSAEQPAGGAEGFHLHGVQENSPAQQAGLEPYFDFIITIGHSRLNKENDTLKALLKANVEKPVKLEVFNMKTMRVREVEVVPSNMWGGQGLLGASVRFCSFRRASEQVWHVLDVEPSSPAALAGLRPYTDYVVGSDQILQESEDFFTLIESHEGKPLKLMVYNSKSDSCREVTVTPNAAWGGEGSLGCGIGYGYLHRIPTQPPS
# GRID2IP_2, A4D2P6 = target: GRID2IP_2, A4D2P6
# Chain of GRID2IP_2, A4D2P6 (A4D2P6 272-370): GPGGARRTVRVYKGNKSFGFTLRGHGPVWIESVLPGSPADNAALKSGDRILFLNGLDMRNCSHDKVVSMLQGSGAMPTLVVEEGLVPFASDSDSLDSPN
# GRIP1_4, Q9Y3R0 = target: T5, GRIP1_4, Q9Y3R0
# T5 sequence (Q9Y3R0 467-571, limits assumed, looked up): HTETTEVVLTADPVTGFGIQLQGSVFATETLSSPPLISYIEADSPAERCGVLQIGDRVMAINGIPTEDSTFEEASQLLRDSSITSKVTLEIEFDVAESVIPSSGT
# GRIP2_3, Q9C0E4 = target: GRIP2_3, Q9C0E4
# Chain of GRIP2_3, Q9C0E4 (Q9C0E4 238-339): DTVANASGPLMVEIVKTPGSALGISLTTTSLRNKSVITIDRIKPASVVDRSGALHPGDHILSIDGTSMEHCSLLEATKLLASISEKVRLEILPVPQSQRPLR
# GRIP2_6, Q9C0E4 = target: GRIP2_6, Q9C0E4
# Chain of GRIP2_6, Q9C0E4 (Q9C0E4 648-740): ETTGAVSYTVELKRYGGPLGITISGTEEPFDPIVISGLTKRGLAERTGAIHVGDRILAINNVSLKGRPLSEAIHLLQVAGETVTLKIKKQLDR
# HTRA4, P83105 = target: T6, HTRA4, P83105
# T6 sequence (P83105 378-476, limits assumed, looked up): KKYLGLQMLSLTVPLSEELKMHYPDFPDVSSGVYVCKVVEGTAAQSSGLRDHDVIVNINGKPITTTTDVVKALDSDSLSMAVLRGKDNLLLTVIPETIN
# Inadl_3, Q8NI35 = target: Inadl_3, Q8NI35
# Chain of Inadl_3, Q8NI35 (Q8NI35 359-469): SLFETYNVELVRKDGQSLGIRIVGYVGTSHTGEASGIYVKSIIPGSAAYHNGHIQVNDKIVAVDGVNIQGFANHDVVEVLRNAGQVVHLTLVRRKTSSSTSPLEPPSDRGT
# LIMK2, P53671 = target: LIMK2, P53671
# Chain of LIMK2, P53671 (P53671 143-248): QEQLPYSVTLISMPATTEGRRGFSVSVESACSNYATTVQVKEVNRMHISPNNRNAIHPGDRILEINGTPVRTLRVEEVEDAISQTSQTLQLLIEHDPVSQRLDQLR
# LNX1_3, Q8TBB1 = target: LNX1_3, Q8TBB1
# Chain of LNX1_3, Q8TBB1 (Q8TBB1 500-596): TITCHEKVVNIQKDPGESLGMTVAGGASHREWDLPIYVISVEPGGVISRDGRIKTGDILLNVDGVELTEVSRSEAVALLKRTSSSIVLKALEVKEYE
# LNX2_2, Q8N448 = target: T7, LNX2_2, Q8N448
# T7 sequence (Q8N448 334-432, limits assumed, looked up): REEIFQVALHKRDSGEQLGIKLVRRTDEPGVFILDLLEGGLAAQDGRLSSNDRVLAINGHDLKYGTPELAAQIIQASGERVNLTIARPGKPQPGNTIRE
# LNX2_3, Q8N448 = target: T8, LNX2_3, Q8N448
# T8 sequence (Q8N448 463-564, limits assumed, looked up): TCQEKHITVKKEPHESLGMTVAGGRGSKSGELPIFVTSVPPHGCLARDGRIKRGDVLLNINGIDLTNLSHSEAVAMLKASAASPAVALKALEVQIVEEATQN
# MAGI1_2, Q96QZ7 = target: MAGI1_2, Q96QZ7
# Chain of MAGI1_2, Q96QZ7 (Q96QZ7 456-580): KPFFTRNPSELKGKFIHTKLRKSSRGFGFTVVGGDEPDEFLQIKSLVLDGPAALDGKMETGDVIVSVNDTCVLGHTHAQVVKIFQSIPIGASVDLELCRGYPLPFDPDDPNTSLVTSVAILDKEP
# MAGI2_5, Q86UL8 = target: MAGI2_5, Q86UL8
# Chain of MAGI2_5, Q86UL8 (Q86UL8 915-1017): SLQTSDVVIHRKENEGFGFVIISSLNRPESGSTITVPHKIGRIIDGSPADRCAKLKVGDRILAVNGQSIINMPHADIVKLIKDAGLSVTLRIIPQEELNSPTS
# NHERF4_2, Q86UT5 = target: NHERF4_2, Q86UT5
# Chain of NHERF4_2, Q86UT5 (Q86UT5 220-308): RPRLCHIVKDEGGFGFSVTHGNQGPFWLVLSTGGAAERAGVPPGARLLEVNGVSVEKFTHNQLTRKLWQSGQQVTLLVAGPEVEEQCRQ
# NOS1, P29475 = target: NOS1, P29475
# Chain of NOS1, P29475 (P29475 9-101): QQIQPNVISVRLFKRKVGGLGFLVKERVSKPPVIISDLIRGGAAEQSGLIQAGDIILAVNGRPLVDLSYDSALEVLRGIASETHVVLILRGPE
# PARD3_3, Q8TEW0 = target: PARD3_3, Q8TEW0
# Chain of PARD3_3, Q8TEW0 (Q8TEW0 582-685): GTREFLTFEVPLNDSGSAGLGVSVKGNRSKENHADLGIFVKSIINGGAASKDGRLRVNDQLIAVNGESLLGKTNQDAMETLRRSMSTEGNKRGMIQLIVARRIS
# PDZD2_2, O15018 = target: T9, PDZD2_2, O15018
# T9 sequence (O15018 329-429, limits assumed, looked up): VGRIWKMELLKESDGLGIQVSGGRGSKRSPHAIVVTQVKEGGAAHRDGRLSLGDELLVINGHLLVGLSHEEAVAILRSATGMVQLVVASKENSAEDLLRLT
# PDZRN3_1, Q9UPQ7 = target: T10, PDZRN3_1, Q9UPQ7
# T10 sequence (Q9UPQ7 244-349, limits assumed, looked up): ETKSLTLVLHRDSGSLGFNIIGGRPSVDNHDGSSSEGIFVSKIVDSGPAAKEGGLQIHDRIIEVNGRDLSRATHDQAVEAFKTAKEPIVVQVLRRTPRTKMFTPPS
# PTPN13_1, Q12923 = target: T11, PTPN13_1, Q12923
# T11 sequence (Q12923 1088-1188, limits assumed, looked up): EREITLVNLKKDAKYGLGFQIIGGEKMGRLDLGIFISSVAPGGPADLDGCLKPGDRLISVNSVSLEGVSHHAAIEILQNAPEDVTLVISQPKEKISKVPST
# RAPGEF6, Q8TEU7 = target: T12, RAPGEF6, Q8TEU7
# T12 sequence (Q8TEU7 525-625, limits assumed, looked up): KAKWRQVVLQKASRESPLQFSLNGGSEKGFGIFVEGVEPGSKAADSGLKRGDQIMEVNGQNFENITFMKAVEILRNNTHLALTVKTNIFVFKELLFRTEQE
# SNX27, Q96L92 = target: SNX27, Q96L92
# [1] = plain residues with an end cap or a label only (N-terminal biotin on a linker: ado-ado)
# [2] = plain residues with an end cap or a label only (N-terminal biotin on a linker: ahx)
binder,measurement,setting,value
"GTGYDRKDYV [CLDN3, O15551]",pKd,"ARHGEF11, O15085; [1]",3.9
same,pKd,"CARD11, Q9BXL7; [1]",below the threshold
same,pKd,"DLG5_1, Q8TDM6; [1]",3.59
same,pKd,"DVL3, Q92997; [1]",3.72
same,pKd,"FRMPD1, Q5SYB0; [1]",below the threshold
same,pKd,"GORASP1, Q9BQQ3; [1]",below the threshold
same,pKd,"GRID2IP_2, A4D2P6; [1]",3.68
same,pKd,"GRIP1_4, Q9Y3R0; [1]",below the threshold
same,pKd,"GRIP2_3, Q9C0E4; [1]",below the threshold
same,pKd,"GRIP2_6, Q9C0E4; [1]",below the threshold
same,pKd,"HTRA4, P83105; [1]",below the threshold
same,pKd,"Inadl_3, Q8NI35; [1]",below the threshold
same,pKd,"LIMK2, P53671; [1]",below the threshold
same,pKd,"LNX1_3, Q8TBB1; [1]",3.49
same,pKd,"LNX2_2, Q8N448; [1]",4.04
same,pKd,"LNX2_3, Q8N448; [1]",below the threshold
same,pKd,"MAGI1_2, Q96QZ7; [1]",below the threshold
same,pKd,"MAGI2_5, Q86UL8; [1]",below the threshold
same,pKd,"NHERF4_2, Q86UT5; [1]",below the threshold
same,pKd,"NOS1, P29475; [1]",4.45
same,pKd,"PARD3_3, Q8TEW0; [1]",3.52
same,pKd,"PDZD2_2, O15018; [1]",4.95
same,pKd,"PDZRN3_1, Q9UPQ7; [1]",below the threshold
same,pKd,"PTPN13_1, Q12923; [1]",below the threshold
same,pKd,"RAPGEF6, Q8TEU7; [1]",below the threshold
same,pKd,"SNX27, Q96L92; [1]",3.68
"RSSGGDDFWF [KCNV1, Q6PIU1]",pKd,"ARHGEF11, O15085; [1]",below the threshold
same,pKd,"CARD11, Q9BXL7; [1]",below the threshold
same,pKd,"DLG5_1, Q8TDM6; [1]",below the threshold
same,pKd,"DVL3, Q92997; [1]",3.64
same,pKd,"FRMPD1, Q5SYB0; [1]",below the threshold
same,pKd,"GORASP1, Q9BQQ3; [1]",below the threshold
same,pKd,"GRID2IP_2, A4D2P6; [1]",below the threshold
same,pKd,"GRIP1_4, Q9Y3R0; [1]",below the threshold
same,pKd,"GRIP2_3, Q9C0E4; [1]",below the threshold
same,pKd,"GRIP2_6, Q9C0E4; [1]",below the threshold
same,pKd,"HTRA4, P83105; [1]",below the threshold
same,pKd,"Inadl_3, Q8NI35; [1]",3.59
same,pKd,"LIMK2, P53671; [1]",below the threshold
same,pKd,"LNX1_3, Q8TBB1; [1]",below the threshold
same,pKd,"LNX2_2, Q8N448; [1]",3.8
same,pKd,"LNX2_3, Q8N448; [1]",below the threshold
same,pKd,"MAGI1_2, Q96QZ7; [1]",below the threshold
same,pKd,"MAGI2_5, Q86UL8; [1]",below the threshold
same,pKd,"NHERF4_2, Q86UT5; [1]",below the threshold
same,pKd,"NOS1, P29475; [1]",below the threshold
same,pKd,"PARD3_3, Q8TEW0; [1]",4.97
same,pKd,"PDZD2_2, O15018; [1]",4.37
same,pKd,"PDZRN3_1, Q9UPQ7; [1]",below the threshold
same,pKd,"PTPN13_1, Q12923; [1]",below the threshold
same,pKd,"RAPGEF6, Q8TEU7; [1]",below the threshold
same,pKd,"SNX27, Q96L92; [1]",4.15
"RDPPAEWTRV [PTPN18, Q99952]",pKd,"ARHGEF11, O15085; [1]",4.38
same,pKd,"CARD11, Q9BXL7; [1]",below the threshold
same,pKd,"DLG5_1, Q8TDM6; [1]",below the threshold
same,pKd,"DVL3, Q92997; [1]",below the threshold
same,pKd,"FRMPD1, Q5SYB0; [1]",below the threshold
same,pKd,"GORASP1, Q9BQQ3; [1]",4.07
same,pKd,"GRID2IP_2, A4D2P6; [1]",4.57
same,pKd,"GRIP1_4, Q9Y3R0; [1]",below the threshold
same,pKd,"GRIP2_3, Q9C0E4; [1]",below the threshold
same,pKd,"GRIP2_6, Q9C0E4; [1]",below the threshold
same,pKd,"HTRA4, P83105; [1]",4.01
same,pKd,"Inadl_3, Q8NI35; [1]",below the threshold
same,pKd,"LIMK2, P53671; [1]",below the threshold
same,pKd,"LNX1_3, Q8TBB1; [1]",3.68
same,pKd,"LNX2_2, Q8N448; [1]",5.15
same,pKd,"LNX2_3, Q8N448; [1]",below the threshold
same,pKd,"MAGI1_2, Q96QZ7; [1]",below the threshold
same,pKd,"MAGI2_5, Q86UL8; [1]",4.72
same,pKd,"NHERF4_2, Q86UT5; [1]",below the threshold
same,pKd,"NOS1, P29475; [1]",3.66
same,pKd,"PARD3_3, Q8TEW0; [1]",3.54
same,pKd,"PDZD2_2, O15018; [1]",4.18
same,pKd,"PDZRN3_1, Q9UPQ7; [1]",3.55
same,pKd,"PTPN13_1, Q12923; [1]",below the threshold
same,pKd,"RAPGEF6, Q8TEU7; [1]",below the threshold
same,pKd,"SNX27, Q96L92; [1]",4.55
"TESNLQTSSC [CGN, Q9P2M7]",pKd,"ARHGEF11, O15085; [2]",below the threshold
same,pKd,"CARD11, Q9BXL7; [2]",below the threshold
same,pKd,"DLG5_1, Q8TDM6; [2]",below the threshold
same,pKd,"DVL3, Q92997; [2]",below the threshold
same,pKd,"FRMPD1, Q5SYB0; [2]",below the threshold
same,pKd,"GORASP1, Q9BQQ3; [2]",below the threshold
same,pKd,"GRID2IP_2, A4D2P6; [2]",3.8
same,pKd,"GRIP1_4, Q9Y3R0; [2]",below the threshold
same,pKd,"GRIP2_3, Q9C0E4; [2]",below the threshold
same,pKd,"GRIP2_6, Q9C0E4; [2]",below the threshold
same,pKd,"HTRA4, P83105; [2]",below the threshold
same,pKd,"Inadl_3, Q8NI35; [2]",3.64
same,pKd,"LIMK2, P53671; [2]",below the threshold
same,pKd,"LNX1_3, Q8TBB1; [2]",below the threshold
same,pKd,"LNX2_2, Q8N448; [2]",below the threshold
same,pKd,"LNX2_3, Q8N448; [2]",below the threshold
same,pKd,"MAGI1_2, Q96QZ7; [2]",below the threshold
same,pKd,"MAGI2_5, Q86UL8; [2]",below the threshold
same,pKd,"NHERF4_2, Q86UT5; [2]",below the threshold
same,pKd,"NOS1, P29475; [2]",below the threshold
same,pKd,"PARD3_3, Q8TEW0; [2]",below the threshold
same,pKd,"PDZD2_2, O15018; [2]",4.1
same,pKd,"PDZRN3_1, Q9UPQ7; [2]",below the threshold
same,pKd,"PTPN13_1, Q12923; [2]",below the threshold
same,pKd,"RAPGEF6, Q8TEU7; [2]",below the threshold
same,pKd,"SNX27, Q96L92; [2]",4.65
